According to US20240400677A1 (ELECTRA THERAPEUTICS, published 2024):
Numbering of substitutions follows the chain as printed.

T1: cynomolgus monkey SIRPα on CHO cells (cynomolgus monkey, UniProt A0A2K5VYQ9 31-507)
T1 construct: whole, on cells; also called Cyno SIRPα CHO
T1 sequence: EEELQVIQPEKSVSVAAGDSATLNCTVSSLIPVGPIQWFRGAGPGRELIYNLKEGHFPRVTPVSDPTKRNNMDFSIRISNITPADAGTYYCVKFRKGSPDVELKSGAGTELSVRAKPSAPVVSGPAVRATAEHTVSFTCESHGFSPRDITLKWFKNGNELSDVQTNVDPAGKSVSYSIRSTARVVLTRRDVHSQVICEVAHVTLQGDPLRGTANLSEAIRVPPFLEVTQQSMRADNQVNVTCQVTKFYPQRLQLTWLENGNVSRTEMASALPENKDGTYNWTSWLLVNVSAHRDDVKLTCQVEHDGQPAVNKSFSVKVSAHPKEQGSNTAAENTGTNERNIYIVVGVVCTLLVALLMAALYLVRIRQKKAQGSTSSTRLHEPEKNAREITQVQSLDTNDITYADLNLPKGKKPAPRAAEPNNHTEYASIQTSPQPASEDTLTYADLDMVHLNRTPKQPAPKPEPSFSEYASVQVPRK

T2: cynomolgus monkey SIRPγ on CHO cells (cynomolgus monkey, UniProt Q9P1W8 29-386 (human entry))
T2 construct: also called Cyno SIRPγ CHO
T2 chain: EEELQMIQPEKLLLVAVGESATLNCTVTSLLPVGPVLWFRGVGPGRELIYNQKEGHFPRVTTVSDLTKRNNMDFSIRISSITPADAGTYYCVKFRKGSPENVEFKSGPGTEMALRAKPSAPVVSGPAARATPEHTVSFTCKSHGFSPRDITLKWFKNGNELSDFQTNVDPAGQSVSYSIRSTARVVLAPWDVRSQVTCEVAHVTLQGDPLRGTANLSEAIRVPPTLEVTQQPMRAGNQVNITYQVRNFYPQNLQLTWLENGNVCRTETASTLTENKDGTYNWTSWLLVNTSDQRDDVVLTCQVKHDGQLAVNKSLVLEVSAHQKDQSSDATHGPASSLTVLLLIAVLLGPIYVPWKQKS

T3: cynomolgus monkey SIRPγ-His monomer protein (cynomolgus monkey, UniProt Q9P1W8 29-359 (human entry), limits assumed)
T3 construct: also called Cyno SIRPγ; Cyno SIRPγ-His
T3 chain: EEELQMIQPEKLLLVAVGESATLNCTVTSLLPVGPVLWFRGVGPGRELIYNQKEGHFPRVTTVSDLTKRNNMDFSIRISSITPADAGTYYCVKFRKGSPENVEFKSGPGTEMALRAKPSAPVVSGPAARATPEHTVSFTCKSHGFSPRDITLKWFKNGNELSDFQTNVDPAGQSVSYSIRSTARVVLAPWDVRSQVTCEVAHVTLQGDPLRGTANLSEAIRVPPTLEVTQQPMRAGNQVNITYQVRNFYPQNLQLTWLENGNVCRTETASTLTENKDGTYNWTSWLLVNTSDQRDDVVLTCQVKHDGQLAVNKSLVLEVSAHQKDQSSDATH

B1: Antibody 43 (scFv, V domains shown)
VH: QVQLVQSGAEVKKPGASVKVSCKASGGTFTSYDINWVRQAPGQGLEWMGWISAYNGHTNYAQNLQGRVTMTRDTSTSTVYMELSSLRSEDTAVYYCAREDSSWYFDLWGRGTLVTVSS
VL: DIQMTQSPSSLSASVGDRVTITCRASQSISSWLAWYQQKPGKAPKLLIYDASNLETGVPSRFSGSGSGTDFTLTISSLQPEDFATYYCQQSFSTPPTFGQGTKVEIK
notes: scFv in crude PPE, V5/myc-tagged
B2: Antibody 37 (scFv, V domains shown)
VH: QVQLVQSGAEVKKPGASVKVSCKASGYTLNNYDINWVRQAPGQGLEWMGWISGYNGNTNYAQKLQGRVTMTRDTSTSTVYMELSSLRSEDTAVYYCARVGSSWEENDQWGQGTLVTVSS
VL: B1 VL with S31R, D50A, N53S, T56S, S91T, F92H, T94F, P96L, Q100G
notes: as for B1
B3: Antibody 13 (scFv, V domains shown)
VH: EVQLLESGGGLVQPGGSLRLSCAASGFTFSNSDMNWVRQAPGKGLEWVSYISSSGNTIYYADSVKGRFTISRDNSKNTLYLQMNSLRAEDTAVYYCARSNWNYPLDYYYMDVWGKGTTVTVSS
VL: DIVMTQSPLSLPVTPGEPASISCRSSQSLLHSNGYNYLDWYLQKPGQSPQLLIYAASSLQSGVPDRFSGSGSGTDFTLKISRVEAEDVGVYYCMQGTHWPPTFGQGTKVEIK
notes: as for B1
B4: Antibody 40 (scFv, V domains shown)
VH: QVQLVQSGAEVKKPGSSVKVSCKASGGTFSSYAISWVRQAPGQGLEWVGRIHPRDGSTDYAQKFQGRVTITADESTSTAYMELSSLRSEDTAVYYCARVSLRFLEDYGMDVWGQGTTVTVSS
VL: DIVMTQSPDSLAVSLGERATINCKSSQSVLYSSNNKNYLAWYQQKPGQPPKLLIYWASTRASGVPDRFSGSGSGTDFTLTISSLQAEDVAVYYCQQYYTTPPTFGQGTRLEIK
notes: as for B1
B5: Antibody 17 (scFv, V domains shown)
VH: QVQLVQSGAEVKKPGASVKVSCKASGYTFTRNYVHWVRQAPGQGLEWMGRINPNSGGTNTAQKFQGRVTMTRDTSTSTVYMELSSLRSEDTAVYYCARLGDVAVAASFDYWGQGTLVTVSS
VL: B1 VL with W32Y, A34N, N53S, T56S, S91A, F92N, T94F, P96L, Q100P, E105D
notes: as for B1
B6: Antibody 26 (scFv, V domains shown)
VH: QVQLVQSGAEVKKPGASVKVSCKASGYTFTSYYMHWVRQAPGQGLEWMGRINPNSGGTKYAQKFQGRVTMTRDTSTSTVYMELSSLRSEDTAVYYCARLGSAYFDLWGRGTLVTVSS
VL: DIQMTQSPSSLSASVGDRVTITCRASQSVDTWLAWYQQKPGKAPKLLIYEASTLESGVPSRFSGSGSGTDFTLTISSLQPEDFATYYCQQANSFPITFGQGTRLEIK
notes: as for B1

target: T4, human SIRPβ1 on CHO cells (co-transfected with DAP12) (human, UniProt O00241 30-398); assay: flow cytometry
T4 construct: whole, on cells; co-transfected with DAP12; also called Human SIRPβ1 CHO
T4 sequence (O00241 30-398): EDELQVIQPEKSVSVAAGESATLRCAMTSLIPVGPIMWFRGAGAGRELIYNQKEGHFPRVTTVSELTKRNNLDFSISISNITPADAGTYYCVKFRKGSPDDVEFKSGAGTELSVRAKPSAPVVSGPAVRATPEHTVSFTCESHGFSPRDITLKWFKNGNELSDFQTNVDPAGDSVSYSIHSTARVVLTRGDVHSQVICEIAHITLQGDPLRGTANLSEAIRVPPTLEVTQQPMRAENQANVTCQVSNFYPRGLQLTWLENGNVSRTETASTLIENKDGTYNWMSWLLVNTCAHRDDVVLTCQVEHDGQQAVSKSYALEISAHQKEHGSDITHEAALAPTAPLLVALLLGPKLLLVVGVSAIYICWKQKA

Binder | binding result
B1 | no binding (tested: fold change <2.0)
B2 | no binding (tested: fold change <2.0)
B3 | no binding (tested: fold change <2.0)
B4 | no binding (tested: fold change <2.0)

target: T1, cynomolgus monkey SIRPα on CHO cells; assay: flow cytometry

Binder | binding result
B1 | no binding (tested: fold change <2.0)
B5 | no binding (tested: fold change <2.0)
B6 | no binding (tested: fold change <2.0)
B3 | no binding (tested: fold change <2.0)
B4 | no binding (tested: fold change <2.0)

Target: T2, cynomolgus monkey SIRPγ on CHO cells
Assay: flow cytometry, myc-scFv PPE
Outline: (§1)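 Flow cytometry on stable CHO transfectants; antibody titration; fluorescent anti-human IgG detection; MFI per concentration. myc-tagged scFv: crude PPE on SIRP-expressing CHO and parental CHO-K1; fold change <2.0 = non-binder.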

Binder | MFI fold change over parental CHO [fold]
B1 | 22.7
B2 | 15.5
B5 | 30.1
B6 | 40
B3 | 5.22
B4 | 15.3

target: T5, human SIRPγ on stably transfected CHO cells (human, UniProt Q9P1W8 29-387); assay: flow cytometry, myc-scFv PPE
T5 construct: also called Human SIRPγ CHO
T5 sequence (Q9P1W8 29-387 limits assumed): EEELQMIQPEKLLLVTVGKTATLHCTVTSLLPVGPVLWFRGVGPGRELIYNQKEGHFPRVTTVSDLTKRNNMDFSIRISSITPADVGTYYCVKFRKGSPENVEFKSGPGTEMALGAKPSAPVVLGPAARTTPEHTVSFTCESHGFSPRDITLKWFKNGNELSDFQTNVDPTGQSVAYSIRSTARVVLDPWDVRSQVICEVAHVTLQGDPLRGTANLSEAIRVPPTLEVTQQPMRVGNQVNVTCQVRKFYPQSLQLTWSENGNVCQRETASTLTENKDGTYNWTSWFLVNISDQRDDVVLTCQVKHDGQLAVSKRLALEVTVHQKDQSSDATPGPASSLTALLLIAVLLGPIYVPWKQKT
Outline: as §1

Binder | MFI fold change over parental CHO [fold]
B1 | 41.2
B2 | 31.1
B5 | 28.3
B6 | 28.4
B3 | 7.06
B4 | 15.4

target: T6, human SIRPγ-His monomer protein (human, UniProt Q9P1W8 29-360); assay: BLI Octet, V5-scFv PPE captured, SIRP-His 500 nM
T6 construct: also called hSIRPγ
T6 sequence (Q9P1W8 29-360 limits assumed): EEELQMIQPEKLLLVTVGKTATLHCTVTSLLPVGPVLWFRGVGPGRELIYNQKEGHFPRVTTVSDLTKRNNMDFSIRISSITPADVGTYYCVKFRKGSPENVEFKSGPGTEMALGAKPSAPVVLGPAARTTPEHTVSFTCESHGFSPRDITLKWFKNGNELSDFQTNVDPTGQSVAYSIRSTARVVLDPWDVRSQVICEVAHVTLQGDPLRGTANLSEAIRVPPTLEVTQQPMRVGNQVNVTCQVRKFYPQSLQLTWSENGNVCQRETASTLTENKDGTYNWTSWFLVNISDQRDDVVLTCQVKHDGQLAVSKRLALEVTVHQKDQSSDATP

Binder | kdis [s⁻¹]
B2 | 0.001 to 0.01
B6 | 0.001 to 0.01
B3 | 0.001 to 0.01
B4 | 0.001 to 0.01

Target: T3, cynomolgus monkey SIRPγ-His monomer …
Assay: BLI Octet, captured scFv PPE, cyno SIRP
Experimental: Unique binders were further tested for binding to human SIRPαV1, human SIRPαV2, and human SIRPβ1. Briefly, biotinylated anti-V5 was immobilized onto streptavidin biosensors. Each V5-tagged SIRPγ scFv antibody as crude PPE was captured by the anti-V5 antibody. SIRP-His monomer protein at 500 nM was exposed to the biosensor for binding to SIRP scFv. The biosensors were then exposed to wash buffer to measure off-rate kinetics. The resulting association and dissociation kinetics (kdis) was analyzed. […] Similarly, cross-reactivity to cynomolgus monkey SIRPγ, cynomolgus monkey SIRPα, and cynomolgus monkey SIRPβ1 were tested.

Binder | binding result
B1 | binds
B2 | binds
B5 | binds
B6 | binds
B3 | binds
B4 | binds
